Data taken from PMC4514675, “Novel Apo E-Derived ABCA1 Agonist Peptide (CS-6253) Promotes Reverse Cholesterol Transport and Induces Formation of preβ-1 HDL In Vitro” (PLoS ONE, 2015).

Target: ABCA1 (Homo sapiens, UniProt O95477)
Experiment: Chemical cross-linking of ABCA1, dimer:monomer ratio (SDS-PAGE)
Type: cell-based
Set-up: expressed in transfected cells; host or cells: BHK cells, stably transfected, induced with 10 nM mifepristone
Experimental: Supplementary file pone.0131997.s004.tif: S3 Fig Chemical cross-linking of ABCA1 in intact BHK cells expressing ABCA1. BHK cells in 100-mm diameter dishes were stimulated with 10 nM mifepristone for 18–20 h. BHK cells expressing ABCA1 (100 μg of total protein) in the presence of apo A-I or CS-6253 at same molarity (0.96 μM) were cross-linked or not with 500 μM DSP. Cells were then lysed at 4°C with lysis buffer containing 0.5% n-dodecylmaltoside in the presence of a protease inhibitor mixture followed by low speed centrifugation to remove cell debris. The supernatants were treated or not with 50 mM DTT for 30 min at 37°C and then separated by SDS-PAGE (4–22.5%) in duplicate. After electrophoresis, ABCA1 was detected by an anti-ABCA1 antibody. GAPDH was used as loading control. (TIF) Click here for additional data file. […]

ABCA1, sequence (O95477 whole entry): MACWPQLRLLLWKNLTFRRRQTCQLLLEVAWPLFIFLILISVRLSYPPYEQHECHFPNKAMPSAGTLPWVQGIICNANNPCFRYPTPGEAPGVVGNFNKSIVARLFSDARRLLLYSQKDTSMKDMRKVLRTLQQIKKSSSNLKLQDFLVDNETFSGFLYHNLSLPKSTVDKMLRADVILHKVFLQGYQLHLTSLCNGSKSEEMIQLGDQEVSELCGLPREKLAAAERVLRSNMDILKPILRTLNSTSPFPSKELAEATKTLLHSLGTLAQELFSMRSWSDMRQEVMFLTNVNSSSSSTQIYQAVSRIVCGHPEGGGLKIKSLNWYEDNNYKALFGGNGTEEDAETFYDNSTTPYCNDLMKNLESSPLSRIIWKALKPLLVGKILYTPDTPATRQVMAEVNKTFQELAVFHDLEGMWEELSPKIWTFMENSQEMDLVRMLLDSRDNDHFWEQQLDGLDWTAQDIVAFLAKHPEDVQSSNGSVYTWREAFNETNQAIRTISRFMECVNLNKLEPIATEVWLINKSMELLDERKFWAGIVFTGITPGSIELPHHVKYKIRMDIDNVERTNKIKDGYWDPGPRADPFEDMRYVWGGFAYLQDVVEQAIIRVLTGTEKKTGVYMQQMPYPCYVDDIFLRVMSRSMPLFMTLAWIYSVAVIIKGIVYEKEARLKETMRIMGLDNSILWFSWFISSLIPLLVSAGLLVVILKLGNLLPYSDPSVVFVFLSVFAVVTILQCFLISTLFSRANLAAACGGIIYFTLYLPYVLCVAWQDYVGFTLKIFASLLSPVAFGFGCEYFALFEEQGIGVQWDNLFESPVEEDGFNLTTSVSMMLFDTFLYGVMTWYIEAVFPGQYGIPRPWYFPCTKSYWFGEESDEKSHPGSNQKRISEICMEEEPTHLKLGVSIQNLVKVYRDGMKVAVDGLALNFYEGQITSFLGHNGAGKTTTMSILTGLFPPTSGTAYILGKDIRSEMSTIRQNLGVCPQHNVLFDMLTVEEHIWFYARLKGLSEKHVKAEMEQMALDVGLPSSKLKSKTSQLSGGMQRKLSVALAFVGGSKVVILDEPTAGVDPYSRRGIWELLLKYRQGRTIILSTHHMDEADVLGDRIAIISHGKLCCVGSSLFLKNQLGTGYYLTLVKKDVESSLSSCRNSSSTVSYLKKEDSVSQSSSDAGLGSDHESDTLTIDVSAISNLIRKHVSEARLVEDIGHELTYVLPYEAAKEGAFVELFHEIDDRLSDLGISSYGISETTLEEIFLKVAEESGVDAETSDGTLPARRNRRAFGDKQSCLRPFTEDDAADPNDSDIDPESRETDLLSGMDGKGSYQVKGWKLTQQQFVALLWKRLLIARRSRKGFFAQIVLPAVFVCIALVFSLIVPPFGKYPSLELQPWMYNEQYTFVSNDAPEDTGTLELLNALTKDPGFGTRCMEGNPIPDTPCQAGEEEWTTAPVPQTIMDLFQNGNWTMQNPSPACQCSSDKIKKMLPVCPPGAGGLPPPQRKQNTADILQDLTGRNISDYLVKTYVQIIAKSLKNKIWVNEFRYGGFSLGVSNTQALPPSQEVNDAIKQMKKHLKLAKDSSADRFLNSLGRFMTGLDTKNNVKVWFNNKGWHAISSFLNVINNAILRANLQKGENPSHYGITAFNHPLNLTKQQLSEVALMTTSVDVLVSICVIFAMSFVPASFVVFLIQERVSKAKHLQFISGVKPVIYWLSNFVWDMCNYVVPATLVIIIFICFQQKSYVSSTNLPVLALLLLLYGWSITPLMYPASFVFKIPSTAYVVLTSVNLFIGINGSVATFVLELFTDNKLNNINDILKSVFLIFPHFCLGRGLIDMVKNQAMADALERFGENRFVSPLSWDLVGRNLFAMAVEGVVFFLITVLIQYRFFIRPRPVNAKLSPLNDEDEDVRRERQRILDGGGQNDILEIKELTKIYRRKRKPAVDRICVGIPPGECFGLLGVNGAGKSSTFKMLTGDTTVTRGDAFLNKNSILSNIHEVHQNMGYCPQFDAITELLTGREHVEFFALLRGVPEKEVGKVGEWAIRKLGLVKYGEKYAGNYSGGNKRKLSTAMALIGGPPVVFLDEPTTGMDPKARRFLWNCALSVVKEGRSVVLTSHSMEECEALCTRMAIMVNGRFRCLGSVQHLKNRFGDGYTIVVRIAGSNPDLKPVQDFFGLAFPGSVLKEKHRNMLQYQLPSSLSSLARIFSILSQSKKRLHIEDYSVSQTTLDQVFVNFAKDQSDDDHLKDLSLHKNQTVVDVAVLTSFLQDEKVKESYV

**Q.** For apolipoprotein A-I [apo A-I], which “ratio of ABCA1 dimer: monomer” value (0.93 μM (appendix) / 0.96 μM (S3 Fig), DSP 500 μM, densitometry) is on record?
**A.** 69.22%±0.25

**Q.** And the “effect on ABCA1 oligomerization (in words)” value (BHK-ABCA1, DSP cross-linking)?
**A.** causes ABCA1 dimer formation
